*1 amine or outer side, *2 acyl side, *3 side chain or, on linkers, in order; H or OH if unused. Bridges are numbered along the chain shown (N, C = ends). Primed or numbered codes have the meaning given here. The star is where a group is joined. PEG3′ = three-unit polyethylene glycol linker; NOTA = O=C(O)CN1CCN(CC(=O)O)CCN(CC(=O)*)CC1; TBMB = c1c(C[*:1])cc(C[*:3])cc1C[*:2]
Target: T1, His-Tagged human CD38 recombinant protein (human) (UniProt P28907)
T1 sequence (P28907 whole entry, looked up): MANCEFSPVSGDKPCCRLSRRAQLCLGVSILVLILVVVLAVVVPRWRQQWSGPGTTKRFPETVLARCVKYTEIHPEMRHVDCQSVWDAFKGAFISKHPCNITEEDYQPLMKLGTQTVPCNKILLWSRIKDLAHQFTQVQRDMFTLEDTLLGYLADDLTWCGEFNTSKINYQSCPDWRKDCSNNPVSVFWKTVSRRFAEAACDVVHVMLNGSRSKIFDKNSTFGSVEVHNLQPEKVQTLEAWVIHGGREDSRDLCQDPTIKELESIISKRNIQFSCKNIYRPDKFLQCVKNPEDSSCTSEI
Test: SPR

B1: AJ206 (NOTA-conjugated bicyclic peptide) (peptide)
peptide: {NOTA-PEG3′}-ACVPCADFPIWYC-NH2
modifications: linker 2-5-13 via TBMB
Kd: 19.1 nM
